Measured values reported in patent publication US20070254830A1 (UNIVERSITY OF TOKYO, published 2007).

Molecular target: T1, Myc/His-tagged C20orf20 (Homo sapiens (Human), UniProt Q9NV56 1-204)
T1 construct: Expressed in transfected COS7, SW480, HEK293 or HEK293F cells from pcDNA3.1Myc/His-C20orf20; also called myc-tagged C20orf20; pcDNA3.1Myc/His-C20orf20; not shown: Myc/His tag from the pcDNA3.1Myc/His vector
Assay: reciprocal co-immunoprecipitation (anti-HA IP / anti-myc blot and anti-myc IP / anti-HA blot) from co-transfected COS7 cells
Experimental: The entire coding region of p120 was amplified by RT-PCR and cloned into pCAGGS-HA vector. The primer sequences used for the amplification were 5′-[…]-3′ (SEQ ID NO.5) and 5′-[…]-3′ (SEQ ID NO.6). We transfected COS7 cells with pcDNA3.1Myc/His-C20orf20, pCAGGS-HA-p120 or their combination, and performed immunoprecipitation assay using anti-Myc or anti-HA antibody. Cells were washed with PBS and lysed in TNE buffer containing 150 mM NaCl, 0.5% NP40, 10 mM Tris-HCl (pH7.8), supplemented with a Protease Inhibitor Cocktail 3 (Roche). In a typical immunoprecipitation reaction, 400 μg of whole-cell extract was incubated with 1 μg of anti-Myc (Santa Cruz) or anti-HA antibody (Roche), and 20 μl of protein G Sepharose beads (Zymed) at 4° C. for 2 hr. Beads were washed four times in 1 ml of TNE buffer and proteins bound to the beads were eluted by boiling in Laemmli sample buffer. The precipitated protein was separated by SDS-PAGE and immunoblot analysis was carried out using with either rat anti-HA antibody or mouse anti-Myc antibody, respectively.

T1 sequence (Q9NV56 whole entry): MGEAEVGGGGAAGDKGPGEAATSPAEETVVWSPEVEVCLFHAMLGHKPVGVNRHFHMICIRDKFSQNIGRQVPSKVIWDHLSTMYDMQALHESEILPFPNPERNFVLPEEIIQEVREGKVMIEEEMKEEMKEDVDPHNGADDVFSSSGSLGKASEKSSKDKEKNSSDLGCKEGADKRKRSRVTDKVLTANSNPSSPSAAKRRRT

binding result: binds
B1: HA-tagged p120 (other)
chain: MRSGDQNWVSVSRAIKPFAEPGRPPDWFSQKHCASQYSELLETTETPKRKRGEKGEVVETVEDVIVRKLTAERVEELKKVIKETQERYRRLKRDAELIQAGHMDSRLDELCNDIATKKKLEEEEAEVKRKATDAAYQARQAVKTPPRRLPTVMVRSPIDSASPGGDYPLGDLTPTTMEEATSGVTPGTLPSTPVTSFPGIPDTLPPGSAPLEAPMTPVTDDSPQKKMLGQKATPPPSPLLSELLKKGSLLPTSPRLVNESEMAVASGHLNSTGVLLEVGGVLPMIHGGEIQQTPNTVAASPAASGAPTLSRLLEAGPTQFTTPLASFTTVASEPPVKLVPPPVESVSHATIVMMPALPAPSSAPAVSTTESVAPVSQPDNCVPMEAVGDPHTVTVSMDSSEISMIINSIKEECFRSGVAEAPVGSKAPSIDGKEELDLAEKMDIAVSYTGEELDFETVGDIIAIIEDKVDDHPEVLDVAAVEAALSFCEENDDPQSLPGPWEHPIQQERDKPVPLPAPEMTVKQERLDFEETENKGIHELVDIREPSAEIKVEPAEPEPVISGAEIVAGVVPATSMEPPELRSQDLDEELGSTAAGEIVEADVAIGKGDETPLTNVKTEASPESMLSPSHGSNPIEDPLEAETQHKFEMSDSLKEESGTIFGSQIKDAPGEDEEEDGVSEAASLEEPKEEDQGEGYLSEMDNEPPVSESDDGFSIHNATLQSHTLADSIPSSPASSQFSVCSEDQEAIQAQKIWKKAIMLVWRAAANHRYANVFLQPVTDDIAPGYHSIVQRPMDLSTIKKNIENGLIRSTAEFQRDIMLMFQNAVMYNSSDHDVYHMAVEMQRDVLEQIQQFLATQLIMQTSESGISAKSLRGRDSTRKQDASEKDSVPMGSPAFLLSLFDGGTRGRRCAIEADMKMKK
notes: expressed in transfected COS7, SW480, HEK293 or HEK293F cells; also called SMAP; not shown: HA tag from the pCAGGS-HA vector
